The results in this text go back to article PMC2573054.

This assay deals with His-Rac2 (hexahistidine-tagged Rac2^G12V, aa 2-177) (human) (UniProt P15153). The experiment in a line: SPR. In general terms: Surface plasmon resonance follows binding to a sensor surface in real time, without labels.

In turn, PLCβ2 (PH-C2) (domain or fragment) registered a Kd of 6 µM and a kon of 385 M⁻¹ s⁻¹.

As usually defined, the Kd is the constant that tells how readily two partners part at equilibrium. Lower therefore signals higher affinity. As usually defined, the kon is the rate constant with which the complex forms. A higher kon goes with fast association.
